Laboratory results: patent US20210301005A1 (Genentech, published 2021)
Where two headings read alike, the source gives them in different places.

Legend:
[1] = target: T1, human TGFβ2, mature receptor-binding domain (human, UniProt P09858 303-414 (pig entry), The mature TGFβ2 is a disulfide-linked homodimer of this 112-residue chain. The 4A11 epitope spans both monomers (p-1207).); assay: SPR
T1 construct: Peprotech; also called TGFb2
T1 sequence: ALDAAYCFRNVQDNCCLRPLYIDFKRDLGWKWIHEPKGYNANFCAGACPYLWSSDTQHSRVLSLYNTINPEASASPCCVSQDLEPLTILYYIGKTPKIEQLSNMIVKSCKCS

[2] = target: T2, human TGFβ3, mature dimeric form (human, UniProt P10600 301-412); assay: SPR
T2 construct: Peprotech, expressed in E. coli; also called TGFb3
T2 sequence: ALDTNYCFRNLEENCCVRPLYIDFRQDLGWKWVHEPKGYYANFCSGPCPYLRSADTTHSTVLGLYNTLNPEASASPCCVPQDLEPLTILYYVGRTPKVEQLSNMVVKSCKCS

[3] = target: T1, human TGFβ2, mature receptor-binding …; assay: SPR; remark: listed apart in the source
[4] = target: T2, human TGFβ3, mature dimeric form; assay: SPR; remark: listed apart in the source
[5] = target: T1, human TGFβ2, mature receptor-binding …; assay: cell-based or functional assay
[6] = target: human TGFβ1, mature receptor-binding domain (human, UniProt P01137 279-390); assay: cell-based or functional assay
[7] = target: T1, human TGFβ2, mature receptor-binding …; assay: cell-based or functional assay; remark: listed apart in the source
[8] = target: T2, human TGFβ3, mature dimeric form; assay: cell-based or functional assay

Sequence of human TGFβ1, mature receptor-binding domain (P01137 279-390 limits assumed): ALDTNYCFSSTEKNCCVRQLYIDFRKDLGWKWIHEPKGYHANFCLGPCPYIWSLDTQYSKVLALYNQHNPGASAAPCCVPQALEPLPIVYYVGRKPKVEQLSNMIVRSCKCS

B1: 4A11 (antibody, V domains shown)
VH: QSLEESGGRLVTPGTPLTLTCTVSGFSLSSYTVNWVRQAPGKGLEWIGYISYGGSAYYASWANGRFTISKTSATVDLKITSPTTEDTATYFCARHMQVGGAPTGSMAAFDPWGPGTLVTVSS
VL: AAVLTQTPSPVSAAVGGTVSISCQSSQSVYNNNYLSWFQQKPGQPPKLLIYGASTLTSGVPSRFKGSGSGTQFTLTISDVQCDDAATYYCAGGYSGSSDKYAFGGGTEVVVKG
notes: anti-TGFβ2/3, recombinant rabbit monoclonal; some paragraphs print the H/L pair as 32/33; also called Rb1.4A11; Rbt 4A11
Work on B1 yielded a Kd [1] of less than 0.01 nM, a Kd [2] of less than 0.01 nM and a Kd [3] of 0.008 nM. The Kd [4] was 0.005 nM, the “HEKBlue TGFβ blocking IC50” value [5] was 0.09 nM and the “HEKBlue TGFβ blocking IC50” value [6] was greater than 200 nM. The “cell-based IC50” value [7] was less than 0.25 nM and the “cell-based IC50” value [8] was less than 0.25 nM.
